The values that follow come from the supplement of paper PMC9170038.

This series deals with MS2 coat protein. Briefly: apparent KD of MS2 coat protein; designed switch direction (-1 OFF switch, 1 ON switch): -1; higher = weaker reporter binding. The gist of the method: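 On Illumina chips, designed RNA switches with common flanks were made by stalled E. coli RNA polymerase. Titrations with SNAP-549-labelled MS2 coat protein, doubling from 0.7 or 1.5 nM to 3 µM, were done with no input, with 200 uM small-molecule ligand, or with an oligonucleotide input. Apparent KD is the median per design over clusters, from curve fits of normalised cluster fluorescence.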

[1] abbreviates: input ligand: microRNA oligo, concentration not stated.
Where [2] appears, read: Eterna round: R95, input ligand: microRNA oligo, concentration not stated.

Turning to “CCCAGUUAUCAAGGAUAUUGUACAUGAGGAUCACCCAUGUAAUAAAUGAGGAUUUCGGGUGUCUACAAGAAGGUGAGGAUAGGC [Ostracism 15 - Jieux - Exclusion NG 2] (Eterna round: R96, puzzle: Exclusion NG 2)”, the “apparent KD of MS2 coat protein” value reads like this: (input ligand: FMN 200 uM) 0.0266 µM; under setting [1], 0.0224 µM; (input ligand: none) 0.0464 µM.

As to “CCCAGUUAUUGAGGAUAUCCUACAUGAGGAUCACCCAUGUAAUAAAUGAGGAUUUCGGGUGUCUAGGAGAAGGCAAGGAUAGGC [Ostracism 22 - Jieux - Exclusion NG 2] (Eterna round: R96, puzzle: Exclusion NG 2)”, the “apparent KD of MS2 coat protein” value is, setting by setting: (input ligand: FMN 200 uM) 0.0637 µM; under setting [1], 0.0398 µM; (input ligand: none) 0.0505 µM.

As for “CCCGAUGGAUAGGAUAUCCGGCAAGUAUGCUAUGGAGAAGGGUUCACAUGAGGAUCACCCAUGUGGGUUAAACG [Eternabot (L1) Solution 74] (Eterna round: R97, puzzle: Exclusion 6)”, the “apparent KD of MS2 coat protein” value runs as follows: (input ligand: FMN 200 uM) 0.022 µM; (input ligand: none) 0.0193 µM.

On to “CCCUCACAUGAGGAUCACCCAUGUCAGGAUAUCUCACAUCGGCCUUAGGCCGAUGUCUAGAGAAGGGACGUAUC [Ceonte] (puzzle: Exclusion 1)”, for which the “apparent KD of MS2 coat protein” value under setting [2] stood at 0.0229 µM.

Consider “CCCUCACUUGAGGAUCACCCAAGUCAGGAUAUCUCCCGCCCAACACCAUCCGGGCGCCAGAGAAGGGACUCAAA [Soenonor] (Eterna round: R97, puzzle: Exclusion 1)”, for which the “apparent KD of MS2 coat protein” value stood at 0.0244 µM (input ligand: FMN 200 uM) and 0.0175 µM (input ligand: none).

For “CCCUGACAUGAGGAUCACCCAUGUUAGGAUAUAACAUUUGACACUACAGUGUGAAGUGUUAGAAGGGAUAUGGG [-27.9, -26.2 kcal, A 31%] (Eterna round: R97, puzzle: Exclusion 1)”, the “apparent KD of MS2 coat protein” value runs as follows: (input ligand: FMN 200 uM) 0.0324 µM; (input ligand: none) 0.0287 µM.

For the sequence “CCGAAGUCCUGCGGAGUUCACAUGAGGAUCACCCAUGUAGGCGAGGAUAUUUAUGAUACAUGAGUAAAGAAGGCGUCUGGUAAA [Eternabot solution 26] (Eterna round: R96, puzzle: Exclusion NG 3)”, the “apparent KD of MS2 coat protein” value (input ligand: FMN 200 uM) is 0.0407 µM, the “apparent KD of MS2 coat protein” value under setting [1] is 0.0182 µM and the “apparent KD of MS2 coat protein” value (input ligand: none) turned out to be 0.0291 µM.

Consider “CCGCAAAUGCAGGAUAUCGUAUCGGAUACGAUACGAGAAGGGCGUACAUGAGGAUCACCCAUGUGUCCUAGCGG [Fiskers Ex 6 - 42] (puzzle: Exclusion 6)”, for which the “apparent KD of MS2 coat protein” value under setting [2] was 0.0166 µM.

In the case of “CCGCGUGAUUAGGAUAUCAAACUAGCGUGUACAUGAGAAGGGAUCACAUGAGGAUCACCCAUGUAAGGGAUCCU [Eternabot (L1) Solution 69] (Eterna round: R97, puzzle: Exclusion 6)”, the “apparent KD of MS2 coat protein” value is 0.0932 µM (input ligand: FMN 200 uM) and 0.0561 µM (input ligand: none).

For the sequence “CCGCUAAUAGGAUAUACAUGAGGAUCACCCAUGUCACUCUUCAUUGGUGUCUCUUCAAGUAGAAGGGUUGCUCA [Atisdi] (puzzle: Exclusion 3)”, the “apparent KD of MS2 coat protein” value under setting [2] is 0.0284 µM.

With “CCGCUCCGUGUAGGAUAUCGGUGUACCCUGCGCCGAGAAGGACAUGAGGAUCACCCAUGUAUGUUAUUAUCACGCGUGGCGCAC [Design 73] (Eterna round: R96, puzzle: Exclusion NG 1)”, the “apparent KD of MS2 coat protein” value runs as follows: (input ligand: FMN 200 uM) 0.0377 µM; under setting [1], 0.0189 µM; (input ligand: none) 0.0377 µM.

Take “CCGGAAAGGAAGGAUAUGCUAGACGAAAGUCUAGCAGAAGGUCCUACAUGAGGAUCACCCAUGUGGCCUCCCGG [Eli x6 4.09] (Eterna round: R97, puzzle: Exclusion 6)”: the “apparent KD of MS2 coat protein” value reads like this: (input ligand: FMN 200 uM) 0.267 µM; (input ligand: none) 0.137 µM.

For the sequence “CCGGAAAUAGAGGAUAUAGGACUGGAUACAGUCCUAGAAGGCUAUACAUGAGGAUCACCCAUGUGUCCUACCGG [Fiskers Ex 6 - 63] (puzzle: Exclusion 6)”, the “apparent KD of MS2 coat protein” value under setting [2] came to 0.0141 µM.
